Laboratory results from PMC6803640, “Oligomeric state, hydrodynamic properties and target recognition of human Calcium and Integrin Binding protein 2 (CIB2)” (Scientific Reports, 2019).
Several values for one entry are separate records, joined by “and”; a condition that tells them apart may be missing. Equal values may be shown once. Where a SMILES comes first, the peptide text is derived from it.

What was measured:
CIB2 = assay: Near-UV circular dichroism; format: physicochemical, human; details: 37 °C
Experimental: CIB2 tertiary structure was investigated by using a Jasco J-710 spectropolarimeter equipped with a Peltier type cell holder as previously described. Briefly: near-UV (250–320 nm) CD spectra of 20 μM of sole CIB2 or CIB2/α7B_M complexes (1:1 and 1:2 ratios) were collected in the presence of 500 μM EGTA and after sequential additions of 1 mM Mg^2+ and 2 mM free Ca^2+. A 1 cm quartz cuvette was used, temperature was set at 37 °C, integration time and data pitch were set to 4 s and 1 nm, respectively. Each spectrum represents the average of 5 accumulations. […]
Figure S4: Structural comparison of His-CIB2 (A) and CIB2 (B). Near-UV CD spectra (250-320 nm) of 20-30 µM CIB2 were collected at 37°C in a quartz cuvette with 1 cm length path. Sequential additions of 500 µM EGTA (black), 1 mM Mg2+ (blue) and 2 mM Ca2+ (red) were performed. Near-UV CD spectra of the buffer (20 mM HEPES pH 7.5, 150 mM KCl, 1 mM DTT) was considered as blank and subtracted. Each spectrum represents the mean of 5 accumulations. Data were normalized according to the protein concentration and the number of residues (Molar Residue Ellipticity, MRE).
Figure S5: Near-UV CD spectra of CIB2 in the presence of different stoichiometric ratios of alpha7B_M peptide. Near-UV CD spectra (250-320nm) of 20 μM CIB2 in the absence of peptide (black lines) and in the presence of two different protein/peptide ratios (1:1 blue lines; 1:2 red lines) collected at 37°C in the presence of 500 μM EGTA (A) and after sequential additions of 1 mM Mg2+ (B) and 2 mM free Ca2+ (C). The spectrum of alpha7B_M peptide in the absence of CIB2 is shown in dashed grey lines. […]

[1] = Analytical size exclusion chromatography; format: physicochemical
Experimental: The molecular weight (MW) of the proteins was determined before and after DSBU-modification as previously described[7] in the same buffer (20 mM HEPES, pH 7.5, 1 mM DTT, 1 mM Mg^2+ and 2 mM Ca^2+). […] Standard calibration curve for MW estimation was the same used in our previous study.

[2] = cited from earlier work
Description: Moreover, DLS experiments performed with the samples collected immediately after elution from the SEC column measured a relatively high hydrodynamic diameter (d^Mg = 8.43 nm and d^Ca = 8.18 nm), which was also interpreted as an evidence of a dimeric protein[8]. […] This shoulder (here denominated A1) was collected together with the main peak (A2) in our previous work[8]. In contrast, the two fractions were separately collected and analyzed in the present study.

| Molecule | near-UV CD, effect of peptide on apo-CIB2 (CIB2; 20 μM CIB2, 500 μM EGTA, 1:1 and 2:1 peptide:protein) | near-UV CD, effect of peptide on cation-bound CIB2 (CIB2; 20 μM CIB2, 1 mM Mg^2+ and co-presence of 2 mM Ca^2+, 1:1 and 2:1 peptide:protein) | near-UV CD, structure of isolated peptide (CIB2; 500 μM EGTA, 1 mM Mg^2+, 2 mM Ca^2+) | near-UV CD, tryptophan region (CIB2; incubation of CIB2 with peptide) | apparent MW (MW^SEC) ([1]; absence of cross-linker, 1 mM Mg^2+, 2 mM Ca^2+) [kDa] | MW^SEC ([1]; analytical SEC, 20 mM HEPES pH 7.4, 150 mM KCl, 1 mM DTT, 1 mM Mg^2+, 2 mM Ca^2+, CIB2 ∼70 µM (A2 band), Rec ∼80 µM, CaM ∼110 µM) [kDa] | MW^SEC, A1 shoulder ([1]; lower intensity shoulder A1 at lower elution time, predicted) [kDa] | apparent MW (MW^SEC) ([1]; presence of DSBU cross-linker, 1 mM Mg^2+, 2 mM Ca^2+) [kDa] | hydrodynamic diameter d^Ca ([2]; Ca^2+, collected immediately after SEC) [nm] | hydrodynamic diameter d^Mg ([2]; Mg^2+, A1 and A2 collected in one sample) |
| --- | --- | --- | --- | --- | --- | --- | --- | --- | --- | --- |
| CSCC[C@H](NC(=O)[C@H](CCCCN)NC(=O)[C@H](Cc1c[nH]c2ccccc12)NC(=O)[C@H](CC(C)C)NC(=O)[C@H](CC(C)C)NC(=O)[C@H](CC(C)C)NC(C)=O)C(=O)NCC(=O)N[C@@H](Cc1ccccc1)C(=O)N[C@@H](Cc1ccccc1)C(=O)N[C@@H](CCCCN)C(=O)N[C@@H](CCCNC(=N)N)C(=O)N[C@@H](C)C(=O)N[C@@H](CCCCN)C(=O)N[C@@H](Cc1c[nH]cn1)C(=O)N1CCC[C@H]1C(=O)N[C@@H](CCC(=O)O)C(N)=O [α7B_M] (Ac-LLLWKMGFFKRAKHPE-NH2) | finer spectrum in the phenylalanine and tyrosine bands | the intensity of the resulting spectrum was lower compared to that of CIB2 without the peptide | unfolded in all the tested cases | no clear signal was visible |  |  |  |  |  |  |
| CIB2: Recombinant human CIB2, Ca^2+ and Mg^2+-binding protein (protein, left off: His tag, end not stated, cleaved) MGNKQTIFTEEQLDNYQDCTFFNKKDILKLHSRFYELAPNLVPMDYRKSPIVHVPMSLIIQMPELRENPFKERIVAAFSEDGEGNLTFNDFVDMFSVLCESAPRELKANYAFKIYDFNTDNFICKEDLELTLARLTKSELDEEEVVLVCDKVIEEADLDGDGKLGFADFEDMIAKAPDFLSTFHIRI |  |  |  |  | 35.9 | 37.8 | 81.3 | 36.7 | 8.18 | 8.43 nm and 8.4 nm |
